Measured values reported in patent US20200325187A1 (Genentech, published 2020).

biological target: T1, hVEGF-A (8-109) (human, UniProt P15692 214-315); assay: spot phage ELISA
T1 sequence (looked up): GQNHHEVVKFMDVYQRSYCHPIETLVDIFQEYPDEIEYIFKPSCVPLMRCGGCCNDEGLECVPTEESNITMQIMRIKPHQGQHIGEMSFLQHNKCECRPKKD

| Binder | binding result |
| --- | --- |
| GCNIMLPFWGCGRDFECLAGCVCQYYQSCGPLQ (designed binder) [9.54.90-3x49] | binds |
| GCNIMLPFWGCGRDFECLAGCVCQYYQSCGNYQ (designed binder) [9.54.90-3X50] | binds |
| GCNIMLPFWGCGRDFECLAGCVCQYYQSCGPLI (designed binder) [9.54.90-3X83] | binds |
| GCNIMLPFWGCGRDFECLAGCVCQYYQSCGGS (designed binder) [9.54.90-2x63] | binds |
| GCNIMLPFWGCGRDFECLAGCVCQYYQSCGTR (designed binder) [9.54.90-2x36] | binds |
| GCNIMLPFWGCGRDFECLAGCVCQYYQSCGLS (designed binder) [9.54.90-2x42] | binds |
| GCNIMLPFWGCGRDFECLAGCVCQYYQSCGVH (designed binder) [9.54.90-2x90] | binds |
| GCNIMLPFWGCGRDFECLAGCVCQYYQSCGFH (designed binder) [9.54.90-2x28] | binds |
| GCNIMLPFWGCGRDFECLAGCVCQYYQSCGIA (designed binder) [9.54.90-2x2] | binds |
| GCNIMLPFWGCKQDSDCLAGCVCQYYQSCGSE (designed binder) [9.54-4] | binds |
| GCNIMLPFWGCKQDFDCLAGCVCQYYQSCGGR (designed binder) [9.54-32] | binds |
| GCNIMLPFWGCKQDSDCLAGCVCQYYQSCGPH (designed binder) [9.54-27] | binds |
| GCNIMLPFWGCKQDFDCLAGCVCQYYQSCGQH (designed binder) [9.54-9] | binds |
| GCNIMLPFWGCKQDSDCLVGCICQYYQSCGSI (designed binder) [9.54-10] | binds |
| GCNIMLPFWGCKQDSDCLAGCVCQYYQSCGDD (designed binder) [9.54-19] | binds |
| GCNIMLPFWGCKQDSDCLAGCVCQYYQSCGMD (designed binder) [9.54-2] | binds |
| GCNIMLPFWGCKQDSDCLAGCVCQYYQSCGPE (designed binder) [9.54-15] | binds |
| GCNIMLPFWGCKQDSDCLAGCVCQYYQSCGTN (designed binder) [9.54-42] | binds |
| GCNIMLPFWGCKQDFDCLAGCVCQYYQSCGDT (designed binder) [9.54-34] | binds |
| GCNIMLPFWGCKQDSDCLAGCVCQYYQSCGTD (designed binder) [9.54-1] | binds |

| Binder | binding result |
| --- | --- |
| GCNIMLPFWGCKQDSDCLAGCVCQYYQSCGEN (designed binder) [9.54-24] | binds |
| GCNIMLPFWGCKQDSDCLAGCVCQYYQSCGSD (designed binder) [9.54-21] | binds |
| GCNIMLPFWGCKQDFDCLAGCVCQYYQSCGRP (designed binder) [9.54-13] | binds |
| GCNIMLPFWGCKQDFDCLAGCICQYYQSCGGE (designed binder) [9.54-39] | binds |
| GCNIMLPFWGCKQDSDCLAGCVCQYYQSCGEE (designed binder) [9.54-17] | binds |
| GCNIMLPFWGCKQDSDCLAGCVCQYYQSCGDG (designed binder) [9.54-43] | binds |
| GCNIMLPFWGCKQDFDCLAGCVCQYYQSCGLE (designed binder) [9.54-5] | binds |
| GCNIMLPFWGCKQDFDCLAGCVCQYYQSCGQY (designed binder) [9.54-6] | binds |
| GCNIMLPFWGCKQDSDCLAGCICQYYQSCGQN (designed binder) [9.54-12] | binds |
| GCDVMQPYWGCEMDFDCLAGCVCHWYNSCGSL (designed binder) [9.63-36] | binds |
| GCDVMQPYWGCEMDFDCLAGCVCHWYNSCGFN (designed binder) [9.63.44-73] | binds |
| GCDVMQPYWGCEMDFDCLAGCVCHWYNSCGEK (designed binder) [9.63-17] | binds |
| GCDVMQPYWGCEMDFDCLAGCVCHWYNSCGGQ (designed binder) [9.63.44-19] | binds |
| GCDVMQPYWGCEMDFDCLAGCVCHWYNSCGST (designed binder) [9.63.44-41] | binds |
| GCDVMQPYWGCKQDFDCLAGCICHWYNSCGYL (designed binder) [9.63-10] | binds |
| GCDVMQPYWGCKQDSDCLAGCVCHWYNSCGEN (designed binder) [9.63-62] | binds |
| GCDVMQPYWGCEMDFDCLAGCICHWYNSCGAS (designed binder) [9.63-23] | binds |
| GCDVMQPYWGCEMDFDCLAGCVCHWYNSCGEP (designed binder) [9.63.44-16] | binds |
| GCDVMQPYWGCEMDFDCLAGCVCHWYNSCGGK (designed binder) [9.63-7] | binds |
| GCDVMQPYWGCEMDFDCLAGCICHWYNSCGPT (designed binder) [9.63-30] | binds |

| Binder | binding result |
| --- | --- |
| GCDVMQPYWGCEMDFDCLAGCVCHWYNSCGYM (designed binder) [9.63.44-54] | binds |
| GCDVMQPYWGCEMDFDCLAGCVCHWYNSCGSM (designed binder) [9.63-45] | binds |
| GCDVMQPYWGCEMDFDCLAGCVCHWYNSCGND (designed binder) [9.63-77] | binds |
| GCDVMQPYWGCEMDFDCLAGCICHWYNSCGDE (designed binder) [9.63-93] | binds |
| GCDVMQPYWGCEMDFDCLAGCVCHWYNSCGTP (designed binder) [9.63.44-44] | binds |
| GCDVMQPYWGCEMDFDCLAGCVCHWYNSCGVE (designed binder) [9.63-68] | binds |
| GCDVMQPYWGCEMDFDCLAGCVCHWYNSCGVN (designed binder) [9.63.44-14 (SEQ ID NO: 514)] | binds |
| GCDVMQPYWGCEMDFDCLAGCICHWYNSCGPE (designed binder) [9.63-66] | binds |
| GCDVMQPYWGCEMDFDCLAGCVCHWYNSCGWD (designed binder) [9.63-40] | binds |
| GCDVMQPYWGCEMDFDCLAGCVCHWYNSCGRY (designed binder) [9.63.44-82] | binds |
| GCDVMQPYWGCEMDFDCLAGCICHWYNSCGRP (designed binder) [9.63-74] | binds |
| GCDVMQPYWGCEMDFDCLAGCVCHWYNSCGRL (designed binder) [9.63-21] | binds |
| GCDVMQPYWGCEIDFDCLAGCVCHWYNSCGQV (designed binder) [9.63.44-55] | binds |
| GCDVMQPYWGCEMDFDCLAGCVCHWYNSCGNS (designed binder) [9.63.44-80] | binds |
| GCDVMQPYWGCEMDFDCLAGCICHWYNSCGTR (designed binder) [9.63-61] | binds |
| GCDVMQPYWGCKQDFDCLAGCVCHWYNSCGPS (designed binder) [9.63-1] | binds |
| GCDVMQPYWGCEMDFDCLAGCVCHWYNSCGDL (designed binder) [9.63-16] | binds |
| GCDVMQPYWGCEMDFDCLAGCICHWYNSCGRT (designed binder) [9.63.44-2-A] | binds |
| GCDVMQPYWGCKQDSDCLAGCICHWYNSCGTD (designed binder) [9.63-19] | binds |
| GCDVMQPYWGCEMDFDCLAGCVCHWYNSCGNN (designed binder) [9.63-65] | binds |
